Experimental data from patent publication US11549123B2, “Plant EPSP synthases and methods of use” (PIONEER HI-BRED INTERNATIONAL, INC., priority 2015, dated 2023).
Numbering of substitutions follows the chain as printed. Names may count otherwise.

Assays:
C=C(OP(=O)(O)O)C(=O)O = experiment: purified protein, by the assay type; conditions: other: substrate saturation; Bacterial EPSPS / CP4
Text: There are several practical considerations for accurately estimating (kcat/KM)*KI with the rapid method. […] If inhibition is too little, v0-vi will be small, and the error in the multiplier vi×v0/(v0-vi) will be large. […] High substrate concentration obscures sensitivity to the inhibitor and reduces stringency for capturing improvements in KM.

[1] = substrate: C=C(OP(=O)(O)O)C(=O)O; experiment: EPSPS substrate saturation kinetics, maize variant 103V 107G; format: biochemical, Zea mays; conditions: other: PEP varied; pH 7.0
Method: (§1) EPSPS activity was determined by quantifying the phosphate generated from the EPSPS reaction. Release of inorganic phosphate was coupled to reaction with 2-amino-6-mercapto-7-methylpurine ribonucleoside, catalyzed by purine-nucleoside phosphorylase (M R Webb, Proc. Natl. Acad. Sci. 89:4884-4887, 1992). The absorbance change that occurs was monitored at 360 nm, where the extinction is 11,200 M^−1 cm^−1, with a Spectramax plate reader (Molecular Devices). To determine kinetic parameters, the varied substrate was present at seven concentrations (the eighth being the blank, containing no substrate) ranging from 4 to 400 uM and the unvaried substrate present at saturation. […] Reactions were monitored with a Spectramax plate reader. […] KI was then calculated from the following form of the Michaelis-Menten equation for competitive inhibition: KI=KM[I]/(KM app−KM) KM approximates the dissociation constant of the enzyme-substrate complex while kcat is the rate of conversion of substrate to product when the substrate concentration is saturating. kcat/KM is a widely accepted parameter for catalytic efficiency when substrate concentration is low (˜KM). […] The parameter kcat/KM×KI is used to quantify both catalytic efficiency and insensitivity and thus the overall fitness of the enzyme. […]

[2] = substrate: C=C(OP(=O)(O)O)C(=O)O; experiment: EPSPS substrate saturation kinetics, maize variant 103G 107W (EPSPS-TGPW); format: biochemical; conditions: other: PEP varied; pH 7.0
Method: as §1

[3] = substrate: C=C(OP(=O)(O)O)C(=O)O; experiment: EPSPS substrate saturation kinetics, maize variant 103S 107N; format: biochemical, Zea mays; conditions: other: PEP varied; pH 7.0
Method: as §1

[4] = substrate: C=C(OP(=O)(O)O)C(=O)O; experiment: EPSPS substrate saturation kinetics, maize variant 103L 107T; format: biochemical, Zea mays; conditions: other: PEP varied; pH 7.0
Method: as §1

[5] = substrate: C=C(OP(=O)(O)O)C(=O)O; experiment: EPSPS substrate saturation kinetics, maize variant 103L 107A; format: biochemical, Zea mays; conditions: other: PEP varied; pH 7.0
Method: as §1

[6] = substrate: C=C(OP(=O)(O)O)C(=O)O; experiment: Substrate saturation kinetic analysis with glyphosate, H6-A76V; format: biochemical, Zea mays; conditions: other: substrate saturation
[7] = substrate: C=C(OP(=O)(O)O)C(=O)O; experiment: Substrate saturation kinetic analysis with glyphosate, H6-K246G; format: biochemical, Zea mays; conditions: other: substrate saturation
[8] = substrate: C=C(OP(=O)(O)O)C(=O)O; experiment: Substrate saturation kinetic analysis with glyphosate, H6-R61Y; format: biochemical, Zea mays; conditions: other: substrate saturation
maize EPSPS = experiment: EPSPS reaction rates at 200 uM PEP and S3P, and at 30 uM substrates with 1 mM glyphosate; format: biochemical, Zea mays; conditions: Zea ma
Method: as §1

[9] = system: Glycine max (93Y21) hairy root; experiment: Hairy root growth from transformed soybean cotyledons with or without 25 uM glyphosate; format: cell-based; conditions: constructs containing the UBQ10 promoter
[10] = substrate: C=C(OP(=O)(O)O)C(=O)O; experiment: Substrate saturation kinetic analysis with glyphosate, H6-D196V; format: biochemical, Zea mays; conditions: other: substrate saturation
[11] = substrate: C=C(OP(=O)(O)O)C(=O)O; experiment: Substrate saturation kinetic analysis with glyphosate, H6-A69V; format: biochemical, Zea mays; conditions: other: substrate saturation

## Bacterial EPSPS (CP4) (Agrobacterium sp. CP4)
C=C(OP(=O)(O)O)C(=O)O
  Km: 15.8 µM
  kcat: 20.32 s⁻¹

B1: Zea mays EPSPS variant V-G at positions 103-107 (Zea mays; P106G/T102V) (protein)
chain: MAGAEEIVLQPIKEISGTVKLPGSKSLSNRILLLAALSEGTTVVDNLLNSEDVHYMLGALRTLGLSVEADKAAKRAVVVGCGGKFPVEDAKEEVQLFLGNAGVAMRGLTAAVTAAGGNATYVLDGVPRMRERPIGDLVVGLKQLGADVDCFLGTDCPPVRVNGIGGLPGGKVKLSGSISSQYLSALLMAAPLALGDVEIEIIDKLISIPYVEMTLRLMERFGVKAEHSDSWDRFYIKGGQKYKSPKNAYVEGDASSASYFLAGAAITGGTVTVEGCGTTSLQGDVKFAEVLEMMGAKVTWTETSVTVTGPPREPFGRKHLKAIDVNMNKMPDVAMTLAVVALFADGPTAIRDVASWRVKETERMVAIRTELTKLGASVEEGPDYCIITPPEKLNVTAIDTYDDHRMAMAFSLAACAEVPVTIRDPGCTRKTFPDYFDVLSTFVKN
[1]
  Km: 133 µM

B2: Zea mays EPSPS variant G-W at positions 103-107 (EPSPS-TGPW; T103G P107W) (Zea mays; P106W/T102G) (protein)
chain: B1 chain with V103G, G107W
[2]
  Km: 82.2 µM

B3: Zea mays EPSPS variant S-N at positions 103-107 (Zea mays; P106N/T102S) (protein)
chain: B1 chain with V103S, G107N
[3]
  Km: 38.1 µM

B4: Zea mays EPSPS variant L-T at positions 103-107 (Zea mays; P106T/T102L) (protein)
chain: B1 chain with V103L, G107T
[4]
  Km: 45.8 µM

B5: Zea mays EPSPS variant L-A at positions 103-107 (Zea mays; P106A/T102L) (protein)
chain: B1 chain with V103L, G107A
[5]
  Km: 50.6 µM

B6: Zea mays EPSPS variant Zm-H6 (868-H6) with A76V (H6-A76V) (Zea mays; A1R/A3W/A415G/A71Q/A75V/D401G/E301S/E390G/G101A/I207L/K83R/L97C/T278A/T360S/T440Q/V437R) (protein)
chain: MRGWEEIVLQPIKEISGTVKLPGSKSLSNRILLLAALSEGTTVVDNLLNSEDVHYMLGALRTLGLSVEADKQAKRVVVVGCGGRFPVEDAKEEVQLFCGNAATAMRPLTAAVTAAGGNATYVLDGVPRMRERPIGDLVVGLKQLGADVDCFLGTDCPPVRVNGIGGLPGGKVKLSGSISSQYLSALLMAAPLALGDVEIEIIDKLISLPYVEMTLRLMERFGVKAEHSDSWDRFYIKGGQKYKSPKNAYVEGDASSASYFLAGAAITGGTVTVEGCGTASLQGDVKFAEVLEMMGAKVTWTSTSVTVTGPPREPFGRKHLKAIDVNMNKMPDVAMTLAVVALFADGPTAIRDVASWRVKESERMVAIRTELTKLGASVEEGPDYCIITPPGKLNVTAIDTYGDHRMAMAFSLAACGEVPVTIRDPGCTRKTFPDYFDRLSQFVKN
[6]
  Km: 45.2 µM
  kcat: 3.48 s⁻¹

B7: Zea mays EPSPS variant Zm-H6 (868-H6) with K246G (H6-K246G) (Zea mays; A1R/A3W/A415G/A71Q/D401G/E301S/E390G/G101A/I207L/K245G/K83R/L97C/T278A/T360S/T440Q/V437R) (protein)
chain: B6 chain with V76A, K246G
notes: 868-H6 plus K246G; E. coli BL21(DE3), Ni-NTA purified
[7]
  Km: 24.0 µM
  kcat: 3.5 s⁻¹

B8: Zea mays EPSPS variant Zm-H6 (868-H6) with R61Y (H6-R61Y) (Zea mays; A1R/A3W/A415G/A71Q/D401G/E301S/E390G/G101A/I207L/K83R/L97C/R60Y/T278A/T360S/T440Q/V437R) (protein)
chain: B6 chain with R61Y, V76A
notes: 868-H6 plus R61Y; E. coli BL21(DE3), Ni-NTA purified
[8]
  Km: 23.6 µM
  kcat: 2.08 s⁻¹

B9: 123-C1: maize EPSPS with A2R, A4W, K84R, L98C, G102A, I208L, K243E, E391P, D402G (protein)
chain: B6 chain with Q72A, V76A, K243E, A279T, S302E, S361T, G391P, G416A, R438V, Q441T
modifications: maize clone 123-C1
notes: maize EPSPS with A2R, A4W, K84R, L98C, G102A, I208L, K243E, E391P, D402G
Maize EPSPS; PEP and S3P both at 200 uM, no glyphosate
  Reaction rate, 200 uM, no glyph: 516
Maize EPSPS; substrates at 30 uM, glyphosate at 1 mM
  Reaction rate, 30 uM, 1 mM glyph: 94.5
[9]
  hairy root growth in the presence of 25 uM glyphosate: generated hairy roots

B10: Zea mays EPSPS variant Zm-H6 (868-H6) with D196V (H6-D196V) (Zea mays; A1R/A3W/A415G/A71Q/D195V/D401G/E301S/E390G/G101A/I207L/K83R/L97C/T278A/T360S/T440Q/V437R) (protein)
chain: B6 chain with V76A, D196V
notes: shuffled variant 868-H6 plus D196V; E. coli BL21(DE3), Ni-NTA purified
[10]
  Km: 61.8 µM
  kcat: 2.73 s⁻¹

B11: Zea mays EPSPS variant Zm-H6 (868-H6) with A69V (H6-A69V) (Zea mays; A1R/A3W/A415G/A68V/A71Q/D401G/E301S/E390G/G101A/I207L/K83R/L97C/T278A/T360S/T440Q/V437R) (protein)
chain: B6 chain with A69V, V76A
[11]
  Km: 21.1 µM
  kcat: 2.68 s⁻¹
